Test results as given in PMC12410180, “An anti-CEA affibody showing high-definition staining in human pancreatic cancer tissue sections and selective tumor targeting in vivo” (Translational Oncology, 2025).

Molecular target: T1, human CEA His6-tag (Acro BioSystems, cat. hCE5-H5226) (Homo sapiens, UniProt P06731)
T1 construct: human carcinoembryonic antigen (CEA, CEACAM5), recombinant, His6-tagged; Glycosylated; also called CEACAM5; carcinoembryonic antigen-related adhesion molecule 5; source: bought: Acro BioSystems, produced in HEK293 cells
Experiment: SPR; MFE-23 scFv dilution series (1-100 nM, 3-fold) over a freshly immobilized surface with CEA (2500 RU); 25 °C, PBST pH 7.4; Langmuir 1:1 fit
Details: both partners purified

T1 sequence (P06731 35-685): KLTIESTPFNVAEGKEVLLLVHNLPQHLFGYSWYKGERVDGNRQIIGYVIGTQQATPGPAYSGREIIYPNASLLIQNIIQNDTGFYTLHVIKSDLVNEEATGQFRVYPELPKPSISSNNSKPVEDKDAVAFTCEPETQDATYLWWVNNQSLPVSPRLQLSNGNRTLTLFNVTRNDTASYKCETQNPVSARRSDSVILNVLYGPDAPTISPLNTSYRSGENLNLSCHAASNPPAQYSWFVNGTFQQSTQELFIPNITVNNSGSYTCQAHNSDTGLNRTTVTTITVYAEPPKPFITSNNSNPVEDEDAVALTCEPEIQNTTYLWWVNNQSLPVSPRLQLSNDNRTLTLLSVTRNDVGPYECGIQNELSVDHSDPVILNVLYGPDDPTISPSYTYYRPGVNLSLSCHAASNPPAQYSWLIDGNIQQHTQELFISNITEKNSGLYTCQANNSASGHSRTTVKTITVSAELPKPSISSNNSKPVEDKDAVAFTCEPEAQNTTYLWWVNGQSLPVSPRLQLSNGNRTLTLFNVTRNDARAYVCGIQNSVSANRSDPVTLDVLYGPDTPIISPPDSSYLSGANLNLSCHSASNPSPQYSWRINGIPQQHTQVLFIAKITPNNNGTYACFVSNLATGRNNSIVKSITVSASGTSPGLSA

B1: anti-CEA scFv fragment MFE-23 (scFv, V domains shown)
VH: QVKLQQSGAELVRSGTSVKLSCTASGFNIKDSYMHWLRQGPEQGLEWIGWIDPENGDTEYAPKFQGKATFTTDTSSNTAYLQLSSLTSEDTAVYYCNEGTPTGPYYFDYWGQGTTVTVSS
VL: ENVLTQSPAIMSASPGEKVTITCSASSSVSYMHWFQQKPGTSPKLWIYSTSNLASGVPARFSGSGSGTSYSLTISRMEAEDAATYYCQQRSSYPLTFGAGTKLELK
notes: Expressed from pET22b(+) with a PelB signal peptide; also called MFE-23 scFv; scFv MFE-23; source: E. coli BL21(DE3), periplasmic preparation, purified (IMAC)
Question: Which Kd does the source give for B1 here?
Answer: The Kd was roughly 15 nM.
